B1: positive control scFv DLX105 (scFv)
scFv: MADIVMTQSPSSLSASVGDRVTLTCTASQSVSNDVVWYQQRPGKAPKLLIYSAFNRYTGVPSRFSGRGYGTDFTLTISSLQPEDVAVYYCQQDYNSPRTFGQGTKLEVKRGGGGSGGGGSGGGGSSGGGSQVQLVQSGAEVKKPGASVKVSCTASGYTFTHYGMNWVRQAPGKGLEWMGWINTYTGEPTYADKFKDRFTFSLETSASTVYMELTSLTSDDTAVYYCARERGDAMDYWGQGTLVTVSS
B2: scFv1 (scFv)
scFv: EIVMTQSPSTLSASVGDRVIITCQASQSISSYLAWYQQKPGKAPKLLIYWASTLASGVPSRFSGSGSGTEFTLTISSLQPDDFATYYCQSYYYTSNNSDGFWAFGQGTKLTVLGGGGGSGGGGSGGGGSGGGGSEVQLVESGGGLVQPGGSLRLSCKASGIDFSNSGITWVRQAPGKGLEWVGYIYPGFGIRNYANSVRGRFTISRDTSKNTVYLQMNSLRAEDTAVYYCARDPIYASSSGYADIWGQGTLVTVSS

Tests used:
[1] = target: recombinant human (rh) TNF alpha (human, UniProt P01375 77-233, limits assumed); test: cell-based or functional assay
Chain of recombinant human (rh) TNF alpha (P01375 77-233 limits assumed): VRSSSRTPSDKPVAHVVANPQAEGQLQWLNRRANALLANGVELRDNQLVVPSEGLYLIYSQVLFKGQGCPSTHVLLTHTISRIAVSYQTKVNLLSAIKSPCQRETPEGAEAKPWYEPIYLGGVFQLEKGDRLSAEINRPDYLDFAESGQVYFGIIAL

[2] = target: transmembrane (tm) human TNF alpha, A1-12 variant, on CHO cells (human, UniProt P01375 1-233); test: cell-based or functional assay
Chain of transmembrane (tm) human TNF alpha, A1-12 variant, on CHO cells (P01375 other isoform, or with tags, fused parts or gaps mutant limits assumed): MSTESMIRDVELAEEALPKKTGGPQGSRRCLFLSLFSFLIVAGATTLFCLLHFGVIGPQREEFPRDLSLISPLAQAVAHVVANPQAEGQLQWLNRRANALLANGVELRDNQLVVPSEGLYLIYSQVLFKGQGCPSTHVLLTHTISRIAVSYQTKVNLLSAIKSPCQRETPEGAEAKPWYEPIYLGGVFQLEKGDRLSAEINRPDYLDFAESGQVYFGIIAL

[3] = target: T1, recombinant human lymphotoxin α2/β1 (R&D systems, cat. No 679-TX-010/CF) (human, UniProt P01374 35-205; Q06643 49-244, limits assumed); test: direct ELISA, protein coated
T1 construct: Bought heterotrimer; also called human lymphotoxin alpha2/beta1
T1 sequence (looked up) 1: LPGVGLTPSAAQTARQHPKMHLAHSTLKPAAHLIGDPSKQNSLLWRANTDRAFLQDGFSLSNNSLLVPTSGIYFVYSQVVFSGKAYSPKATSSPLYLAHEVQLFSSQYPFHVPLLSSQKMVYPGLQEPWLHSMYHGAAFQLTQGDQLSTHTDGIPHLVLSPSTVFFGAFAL
T1 sequence (looked up) 2: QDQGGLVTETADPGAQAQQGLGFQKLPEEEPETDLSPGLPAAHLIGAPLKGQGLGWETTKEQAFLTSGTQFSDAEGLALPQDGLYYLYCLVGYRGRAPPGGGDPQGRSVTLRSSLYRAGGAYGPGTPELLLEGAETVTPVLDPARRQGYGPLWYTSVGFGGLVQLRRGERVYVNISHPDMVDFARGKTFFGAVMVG
Description: (§1) The cross-reactivity profile of the five selected scFvs to TNF alpha homologs of other species than human beings was assessed using ELISA. The following recombinantly expressed TNF alpha proteins were investigated: rhesus macaque (R&D Systems, USA, cat. no. 1070-RM-025/CF), cynomolgus monkey (Sinobiological, cat.no. 90018 CNAE), canine (Kingfisher Biotech, USA, cat. no. RP0261D-025) and feline (R&D systems, cat. No, 2586FTCF), rabbit (Kingfisher, cat. no RPO429U), rat (Peprotech, cat. no 400-14) murine (Peprotech, cat. no 315-01A), guinea pig (R&D Systems, cat. no 5035-TG-025/CF), porcine (R&D Systems, cat. no 690-PT-025/CF). Briefly, proteins were coated at a concentration of 2 mcg/mL over night at 4° C. on Maxisorp 96-well microplates in PBS pH 7.2. After blocking with 5% non-fat dry milk, increasing concentrations of scFv (0.1, 0.3 and 1.0 mcg/mL) were added to the wells. Successful coating of every protein was separately confirmed with TNF alpha-specific control antibodies. Whereas scFv1 was detected by Protein L-HRP (Sigma-Aldrich, USA, cat. no. P3226), the full-length IgG control antibodies were detected by either Streptavidin-HRP (BD Pharmingen, USA, cat. no. 554060) or other eligible secondary antibodies labelled with HRP. The ELISA was developed with BM Blue POD substrate (Roche Applied Science) and the absorbance was measured at 450 nm. The cross-reactivity of scFvs 1-5 was compared to the scFv DLX2481. […] The scFv DLX2481 recognized only recombinant human TNF alpha. In addition, the cross-reactivity of scFv1 to TNF family members was measured by a direct ELISA with coated recombinant human lymphotoxin α2/β1 (R&D systems, USA, cat. No 679-TX-010/CF), recombinant human lymphotoxin α2/β1 (R&D systems, cat. No 678-LY-010/CF), recombinant human CD40 ligand/TNFSF5 (R&D systems, cat. No. 6420-CL-025/CF) and recombinant human TNF beta/TNFSF1 (R&D systems, cat.

[4] = target: T2, recombinant human CD40 ligand/TNFSF5 (human, UniProt P29965 108-261, limits assumed); test: direct ELISA, protein coated
T2 construct: Bought protein; also called R&D systems cat; No. 6420-CL-025/CF
T2 sequence (looked up): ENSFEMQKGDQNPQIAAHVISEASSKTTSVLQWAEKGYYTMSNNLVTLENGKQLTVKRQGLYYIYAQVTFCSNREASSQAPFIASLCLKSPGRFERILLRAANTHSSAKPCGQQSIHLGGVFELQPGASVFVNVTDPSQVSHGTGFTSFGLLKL
Description: as §1

[5] = target: T3, recombinant human TNF beta/TNFSF1 (human, UniProt P01374 35-205, limits assumed); test: direct ELISA, protein coated
T3 construct: Bought protein; also called R&D systems cat; No. 211-TB-010/CF
T3 sequence (looked up): T1 sequence (looked up) 1
Description: as §1

[6] = target: T4, recombinant human lymphotoxin α2/β1 (R&D systems, cat. No 678-LY-010/CF) (human, UniProt P01374 35-205; Q06643 49-244, limits assumed); test: direct ELISA, protein coated
T4 construct: This second one is probably α1/β2, so copy numbers are left open; also called second lymphotoxin preparation
T4 sequence (looked up) 1: T1 sequence (looked up) 1
T4 sequence (looked up) 2: T1 sequence (looked up) 2
Description: as §1

[7] = target: T5, cynomolgus monkey TNF alpha (cynomolgus monkey, UniProt P79337 77-233); test: ELISA, TNF alpha protein coated, Protein L-HRP detection
T5 construct: Bought protein; also called Sinobiological cat. no; 90018 CNAE
T5 sequence (P79337 77-233 limits assumed): as the sequence (P01375 77-233 limits assumed) above, with L37V, R44T, T72N, R138L counted along it
Description: as §1

[8] = target: T6, rhesus macaque TNF alpha (rhesus macaque, UniProt P48094 77-233); test: as above
T6 construct: Bought protein; also called R&D Systems cat. no; 1070-RM-025/CF
T6 sequence (P48094 77-233 limits assumed): as the sequence (P01375 77-233 limits assumed) above, with R44T, T72N, R138L counted along it
Description: as §1

[9] = target: T7, feline TNF alpha (feline, UniProt P19101 77-233); test: as above
T7 construct: Bought protein; also called R&D systems cat; No 2586FTCF
T7 sequence (P19101 77-233 limits assumed): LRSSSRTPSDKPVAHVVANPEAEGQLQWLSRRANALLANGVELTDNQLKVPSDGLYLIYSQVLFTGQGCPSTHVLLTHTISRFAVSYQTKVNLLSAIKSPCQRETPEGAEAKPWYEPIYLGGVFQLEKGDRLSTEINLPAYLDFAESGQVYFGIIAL
Description: as §1

[10] = target: T8, canine TNF alpha (canine, UniProt P51742 77-233); test: as above
T8 construct: Bought protein; also called dog TNF alpha; Kingfisher Biotech cat. no; RP0261D-025
T8 sequence (P51742 77-233 limits assumed): as the sequence (P19101 77-233 limits assumed) above, with L1V, R2K, K49I, T65K, A109T, T134A, A140N counted along it
Description: as §1

| Binder | IC50, inhibition of rhTNF alpha (1.4 pM) cytotoxicity on PK-15 cells [1] | IC50, inhibition of tmTNF alpha activity on HEK-Dual TNF alpha-sensitive reporter cells (luciferase) [2] | binding result [3] | binding result [4] | binding result [5] | binding result [6] | binding result [7] | binding result [8] | binding result [9] | binding result [10] |
| --- | --- | --- | --- | --- | --- | --- | --- | --- | --- | --- |
| B1 | 260 pM | 32 nM |  |  |  |  |  |  |  |  |
| B2 | 30 pM | 50 nM | no binding (tested: 40 nM) | no binding (tested: 40 nM) | no binding (tested: 40 nM) | no binding (tested: 40 nM) | binds | binds | binds | binds |

From US20170107282A1 (CELL MEDICA SWITZERLAND, published 2017)
